Test results published in patent publication CN106478818A (JIANGSU NOVOMAB BIOPHARMACEUTICALS INC, dated 2017).
Changes are numbered by the printed parent chain.

B1: NMT802 (antibody, human IgG1, kappa, V domains shown)
VH: EVTLKESGPALVKPTQTLTLTCTFSGFSLSTSGMGVGWIRQPPGKALEWLAHIWWDDVKRYYPALKSRLTISKDTSKSQVVLTMTNMDPADTATYYCARIGYDWFPYWGQGTLVTVSS
VL: DIQMTQSPSFLSASVGDRVTITCKASQNVGIAVAWYQQKPGKAPKLLIYSASNRYTGVPSRFSGSGSGTDFTLTISYLQSEDFATYYCQQYRSYPLTFGGGTKVEIKR
notes: also called 单克隆抗体NMT802; NMT802抗体
B2: NMT803 (antibody, V domains shown)
VH: B1 VH with R60Q, A90V
VL: DIQMTQSPSFLSASVGDRVTITCKASQNVGIAVAWYQQKPGKAPKLLIYSASNRYTGVPSRFSGSGSGTDFTLTISCLQSEDFATYYCQQYRFKPLTFGGGTKVEIK
notes: also called 单克隆抗体NMT803

Tests used:
[1] = biological target: T1, TEM8 on TEM8稳定过表达细胞株 (CHO-K1 cells stably transfected with the full-length TEM8 gene) (human, UniProt Q9H6X2 33-564); experiment: cell-based binding on plated TEM8-overexpressing cells, anti-human-Eu, time-resolved fluorescence
T1 construct: also called TEM8过表达细胞; 细胞膜TEM8

[2] = biological target: T2, 重组TEM8蛋白 (recombinant TEM8 protein, 北京义翘神州生物技术有限公司) (UniProt Q9H6X2 33-321, limits assumed); experiment: ELISA, TEM8 protein coated, antibody in 1:4 serial dilution, anti-human IgG-HRP
T2 construct: Bought recombinant protein coated on an ELISA plate; also called TEM8重组蛋白; 肿瘤内皮标记物8
T2 sequence (looked up): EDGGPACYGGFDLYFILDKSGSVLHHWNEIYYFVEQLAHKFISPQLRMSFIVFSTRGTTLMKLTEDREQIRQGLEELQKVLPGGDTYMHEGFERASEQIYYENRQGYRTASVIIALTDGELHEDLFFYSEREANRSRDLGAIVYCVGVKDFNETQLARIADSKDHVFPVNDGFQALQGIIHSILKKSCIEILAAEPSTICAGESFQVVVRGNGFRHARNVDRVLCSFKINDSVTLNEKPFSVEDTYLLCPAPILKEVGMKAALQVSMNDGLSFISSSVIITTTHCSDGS

Binder | EC50 [1] [µg/mL] | EC50 [2] [µg/mL]
B1 | 0.133 | 0.0324
B2 | 0.765 | 0.00544
